{"source": "patent US20150299726A1", "about": "“AHAS MUTANTS” (BASF PLANT SCIENCE GMBH, priority 2007, published 2015)", "test_system": "AHAS minus E. coli", "experiment": "E. coli complementation assay, Arabidopsis AHASL mutants (AE plasmids) with imazethapyr", "assay_type": "cell-based", "settings": "colony size scored visually in the presence of imazethapyr", "source_text": "Vectors AE10 through AE24 were made as follows. The wild type Arabidopsis thaliana AHAS large subunit gene was amplified under mutagenic conditions using the Genemorph II random mutagenesis kit (Stratagene, La Jolla, Calif.), resulting in randomly mutagenized amplified DNA fragments of this gene. This mutant DNA was then cloned back into AE7, replacing the wild type A. thaliana large subunit gene (between the unique SacII and AgeI sites on AE7) with the mutagenized forms. This DNA was transformed into E. coli strain TOP10 and selected on LB agar medium in such a fashion as to have a large number of unique transformants, each with independent, mutagenized AHAS genes. These colonies were scraped together and plasmid DNA was prepared from this entire primary library. This DNA was transformed into AHAS minus E. coli and again selected on LB agar media with carbenicillin. Plasmid positive colonies from this step were replica plated using velveteen onto minimal agar medium without branched chain amino acids and containing 30-micromolar imazethapyr.\nThe DNA sequence of the A. thaliana AHAS large subunit gene was determined for each of the growth positive colonies. […] Because the AHAS function and imidazolinone tolerance screen was on a secondary library, replicates of the same mutations were found, as determined by DNA sequence analysis. […]", "data": [{"molecule": "AE7: E. coli expression plasmid, Arabidopsis AHASL wild type (protein, UniProt P17597 56-670, looked up) Acetolactate synthase, …: SSSPSSISAVLNTTTNVTTTPSPTKPTKPETFISRFAPDQPRKGADILVEALERQGVETVFAYPGGASMEIHQALTRSSSIRNVLPRHEQGGVFAAEGYARSSGKPGICIATSGPGATNLVSGLADALLDSVPLVAITGQVPRRMIGTDAFQETPIVEVTRSITKHNYLVMDVEDIPRIIEEAFFLATSGRPGPVLVDVPKDIQQQLAIPNWEQAMRLPGYMSRMPKPPEDSHLEQIVRLISESKKPVLYVGGGCLNSSDELGRFVELTGIPVASTLMGLGSYPCDDELSLHMLGMHGTVYANYAVEHSDLLLAFGVRFDDRVTGKLEAFASRAKIVHIDIDSAEIGKNKTPHVSVCGDVKLALQGMNKVLENRAEELKLDFGVWRNELNVQKQKFPLSFKTFGEAIPPQYAIKVLDELTDGKAIISTGVGQHQMWAAQFYNYKKPRQWLSSGGLGAMGFGLPAAIGASVANPDAIVVDIDGDGSFIMNVQELATIRVENLPVKVLLLNNQHLGMVMQWEDRFYKANRAHTFLGDPAQEDEIFPNMLLFAAACGIPAARVTKKADLREAIQTMLDTPGPYLLDVICPHQEHVLPMIPSGGTFNDVITEGDGRIKY", "values": [{"measurement": "E. coli Imazethapyr Tolerance Score", "value": "− (IN)"}]}]}
